Test results reported in PMC9935901 (Signal Transduction and Targeted Therapy, 2023).

Molecular target: T1, GST-tagged full-length β-catenin (UniProt P35222 1-781)
T1 construct: β-catenin, full length; also called GST-β-catenin
T1 sequence (looked up): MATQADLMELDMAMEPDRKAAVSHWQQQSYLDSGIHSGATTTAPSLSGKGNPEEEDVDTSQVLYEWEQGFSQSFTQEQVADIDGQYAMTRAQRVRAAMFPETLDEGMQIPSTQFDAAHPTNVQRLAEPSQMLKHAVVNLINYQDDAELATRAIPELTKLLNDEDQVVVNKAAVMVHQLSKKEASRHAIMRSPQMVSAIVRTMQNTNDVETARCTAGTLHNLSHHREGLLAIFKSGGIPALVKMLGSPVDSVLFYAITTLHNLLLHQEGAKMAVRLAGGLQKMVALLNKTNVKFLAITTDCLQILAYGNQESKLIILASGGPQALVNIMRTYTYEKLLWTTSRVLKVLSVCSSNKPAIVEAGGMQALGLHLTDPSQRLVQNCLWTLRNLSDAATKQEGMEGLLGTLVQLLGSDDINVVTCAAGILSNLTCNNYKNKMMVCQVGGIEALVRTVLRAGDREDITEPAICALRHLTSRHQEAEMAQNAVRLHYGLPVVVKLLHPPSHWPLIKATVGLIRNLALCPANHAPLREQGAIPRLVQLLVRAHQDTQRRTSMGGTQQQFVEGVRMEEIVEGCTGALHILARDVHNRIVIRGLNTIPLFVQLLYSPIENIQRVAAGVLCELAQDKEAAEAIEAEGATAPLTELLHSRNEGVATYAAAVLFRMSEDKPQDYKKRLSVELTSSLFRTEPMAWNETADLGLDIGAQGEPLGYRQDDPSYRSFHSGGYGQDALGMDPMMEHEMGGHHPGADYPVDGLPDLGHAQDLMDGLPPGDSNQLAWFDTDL
Assay: pull-down; purified GST-tagged full-length β-catenin incubated with purified His-tagged FAM83A, pulled down by GST beads, western blotting
Settings: both partners purified

binding result: binds
B1: His-tagged FAM83A (natural protein, UniProt Q86UY5 1-434, looked up)
chain: MSRSRHLGKIRKRLEDVKSQWVRPARADFSDNESARLATDALLDGGSEAYWRVLSQEGEVDFLSSVEAQYIQAQAREPPCPPDTLGGAEAGPKGLDSSSLQSGTYFPVASEGSEPALLHSWASAEKPYLKEKSSATVYFQTVKHNNIRDLVRRCITRTSQVLVILMDVFTDVEIFCDILEAANKRGVFVCVLLDQGGVKLFQEMCDKVQISDSHLKNISIRSVEGEIYCAKSGRKFAGQIREKFIISDWRFVLSGSYSFTWLCGHVHRNILSKFTGQAVELFDEEFRHLYASSKPVMGLKSPRLVAPVPPGAAPANGRLSSSSGSASDRTSSNPFSGRSAGSHPGTRSVSASSGPCSPAAPHPPPPPRFQPHQGPWGAPSPQAHLSPRPHDGPPAAVYSNLGAYRPTRLQLEQLGLVPRLTPTWRPFLQASPHF
notes: FAM83A; also called His-FAM83A
